According to patent publication US20120263722A1 (AbbVie / Abbott, published 2012):

Experiments:
[1] = target: T1, Recombinant Human Neuropilin-1 (human, UniProt O14786-2 22-644, limits assumed); assay: SPR (BIACORE), N-terminal variable domain to target antigen
T1 construct: Bought reagent used in the Biacore analyses; also called NRP1; NRP-1
Experimental: (§1) The BIACORE assay (Biacore, Inc, Piscataway, N.J.) determines the affinity of antibodies or DVD-Ig with kinetic measurements of on-rate and off-rate constants. Binding of antibodies or DVD-Ig to a target antigen (for example, a purified recombinant target antigen) was determined by surface plasmon resonance-based measurements with a Biacore® 1000 or 3000 instrument (Biacore® AB. Uppsala, Sweden) using running HBS-EP (10 mM HEPES [pH 7.4], 150 mM NaCl, 3 mM EDTA, and 0.005% surfactant P20) at 25° C. All chemicals were obtained from Biacore® AB (Uppsala, Sweden) or otherwise from a different source as described in the text.
(§2) For example, approximately 5000 RU of goat anti-mouse IgG, (Fcγ), fragment specific polyclonal antibody (Pierce Biotechnology Inc, Rockford, Ill.) diluted in 10 mM sodium acetate (pH 4.5) is directly immobilized across a CMS research grade biosensor chip using a standard amine coupling kit according to manufacturer's instructions and procedures at 25 μg/ml. Unreacted moieties on the biosensor surface are blocked with ethanolamine. Modified carboxymethyl dextran surface in flowcell 2 and 4 is used as a reaction surface. Unmodified carboxymethyl dextran without goat anti-mouse. IgG in flow cell 1 and 3 is used as the reference surface. For kinetic analysis, rate equations derived from the 1:1 Langmuir binding model are fitted simultaneously to association and dissociation phases of all eight injections (using global fit analysis) with the use of Biaevaluation 4.0.1 software. Purified antibodies or DVD-Ig are diluted in HEPES-buffered saline for capture across goat anti-mouse IgG specific reaction surfaces. Antibodies or DVD-Ig, to be captured as a ligand (25 μg/ml) are injected over reaction matrices at a flow rate of 5 μl/min. The association and dissociation rate constants, kₒₙ(M⁻¹s⁻¹) and koff (s⁻¹) are determined under a continuous flow rate of 25 μl/min. Rate constants are derived by making kinetic binding measurements at different antigen concentrations ranging from 10-200 nM. The equilibrium dissociation constant (M) of the reaction between antibodies or DVD-Igs and the target antigen is then calculated from the kinetic rate constants by the following formula: KD=koff/Kₒₙ. Binding is recorded as a function of time and kinetic rate constants are calculated.

NRP1 on the cell surface = target: T2, NRP1 on the cell surface (human, UniProt O14786 22-923); assay: flow cytometry on cells carrying the target, antibody or DVD-Ig at 2 ug/mL
T2 construct: whole, on cells; also called neuropilin 1
Experimental: (§3) Binding of monoclonal antibodies to the surface of human tumor cell fines was assessed by flow cytometry. For example, stable cell lines overexpressing a cell-surface antigen of interest or human tumor cell lines were harvested from tissue culture flasks and resuspended in phosphate buffered saline (PBS) containing 5% fetal bovine serum (PBS/FBS). Prior to staining, human tumor cells were incubated on ice with (100 μl) human IgG at 5 μg/ml in PBS/FCS. 1-5×10⁵ cells were incubated with antibody or DVD-Ig (2 μg/mL) in PBS/FBS for 30-60 minutes on ice. […] After 30 minutes incubation on ice, cells were washed twice and resuspended in PBS/PBS. Fluorescence was measured using a Becton Dickinson FACSCalibur (Becton Dickinson, San Jose, Calif.).
(§4) The geometric mean is the n root of the multiplication product of n fluorescent signals (a1×a2×a3 . . . an). With log-transformed data the geometric mean is used to normalize the weighting of the data distribution.

[2] = target: T3, Recombinant Human VEGF 165 (human, UniProt P15692-4 27-191); assay: SPR (BIACORE), N-terminal variable domain to target antigen
T3 construct: Bought reagent used in the Biacore analyses; also called vascular endothelial growth factor
Experimental: as §1, §2

EGFR on the cell surface = target: T4, EGFR on the cell surface (human, UniProt P00533 25-1210); assay: flow cytometry on cells carrying the target, antibody or DVD-Ig at 2 ug/mL
T4 construct: whole, on cells; also called epidermal growth factor receptor
Experimental: as §3, §4

Recombinant Human DLL4 = target: T5, Recombinant Human DLL4 (human, UniProt Q9NR61 27-524); assay: SPR (BIACORE), N-terminal variable domain to target antigen
T5 construct: Bought reagent used in the Biacore analyses; also called Delta-like ligand 4
Experimental: as §1, §2

ErbB3 = target: T6, ErbB3 (UniProt P21860 20-643, limits assumed); assay: as above
T6 construct: also called v-erb-b2 avian erythroblastic leukemia viral oncogene homolog 3
Experimental: as §1, §2

Recombinant Human PIGF = target: T7, Recombinant Human PIGF (human, UniProt P49763-2 21-149, limits assumed); assay: as above
T7 construct: Bought reagent used in the Biacore analyses; also called PlGF; placental growth factor
T7 sequence (looked up): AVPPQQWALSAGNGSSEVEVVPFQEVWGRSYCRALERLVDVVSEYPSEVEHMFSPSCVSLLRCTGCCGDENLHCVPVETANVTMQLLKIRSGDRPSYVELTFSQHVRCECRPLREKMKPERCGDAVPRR
Experimental: as §1, §2

[3] = target: T8, Recombinant Human MSP R/RON (human, UniProt Q04912 25-571, limits assumed); assay: as above
T8 construct: Bought reagent used in the Biacore analyses; also called macrophage stimulating protein receptor tyrosine kinase
Experimental: as §1, §2

T5 sequence (Q9NR61 27-524 limits assumed): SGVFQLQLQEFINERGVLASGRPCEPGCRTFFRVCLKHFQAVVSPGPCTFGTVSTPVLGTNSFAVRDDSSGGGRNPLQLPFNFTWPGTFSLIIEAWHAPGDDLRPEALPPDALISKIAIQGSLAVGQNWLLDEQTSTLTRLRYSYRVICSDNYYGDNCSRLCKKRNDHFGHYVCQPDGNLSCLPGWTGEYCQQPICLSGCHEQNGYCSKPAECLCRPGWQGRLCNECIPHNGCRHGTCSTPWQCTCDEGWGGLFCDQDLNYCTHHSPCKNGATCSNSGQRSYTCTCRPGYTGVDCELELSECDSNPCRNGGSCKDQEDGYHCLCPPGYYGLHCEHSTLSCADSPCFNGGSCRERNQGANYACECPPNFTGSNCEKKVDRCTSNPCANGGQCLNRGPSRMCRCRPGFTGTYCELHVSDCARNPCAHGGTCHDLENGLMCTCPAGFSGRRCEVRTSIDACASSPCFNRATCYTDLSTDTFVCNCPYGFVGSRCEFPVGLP
T3 sequence (P15692 other isoform, or with tags, fused parts or gaps limits assumed): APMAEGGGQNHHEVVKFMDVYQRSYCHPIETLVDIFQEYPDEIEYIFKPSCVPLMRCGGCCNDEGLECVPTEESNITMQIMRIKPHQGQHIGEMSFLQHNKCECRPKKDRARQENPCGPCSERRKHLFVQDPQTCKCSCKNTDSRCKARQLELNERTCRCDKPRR

B1: DVD1889 (bispecific antibody, human IgG1, kappa)
heavy: not shown
light: DIQMTQSPSSLSASVGDRVTITCRASQSISSYLAWYQQKPGKAPKLLIYGASSRASGVPSRFSGSGSGTDFTLTISSLQPEDFATYYCQQYMSVPITFGQGTKVEIKRTVAAPQIVLIQSPAIMSASPGEKVTMTCSASSSVSYMYWYQQKPGSSPRLLIYDTSNLASGVPVRFSGSGSGTSYSLTISRMEAEDAATYYCQQWSGYPYTFGGGTKLEIKRTVAAPSVFIFPPSDEQLKSGTASVVCLLNNFYPREAKVQWKVDNALQSGNSQESVTEQDSKDSTYSLSSTLTLSKADYEKHKVYACEVTHQGLSSPVTKSFNRGEC
notes: also called DVD1889H; DVD1889L
- Kd [1]: 0.5 nM
- koff [1]: 0.00019 s⁻¹
- kon [1]: 380000 M⁻¹ s⁻¹
- N-Terminal VD GEO MEAN (FACS geometric mean) (NRP1 on the cell surface): 15

B2: DVD1901 (bispecific antibody, human IgG1, kappa)
heavy: not shown
light: DIQMTQSPSSLSASVGDRVTITCRASQDVSTAVAWYQQKPGKAPKLLIYSASFLYSGVPSRFSGSGSGTDFTLTISSLQPEDFATYYCQQSYTTPPTFGQGTKVEIKRTVAAPQIVLIQSPAIMSASPGEKVTMTCSASSSVSYMYWYQQKPGSSPRLLIYDTSNLASGVPVRFSGSGSGTSYSLTISRMEAEDAATYYCQQWSGYPYTFGGGTKLEIKRTVAAPSVFIFPPSDEQLKSGTASVVCLLNNFYPREAKVQWKVDNALQSGNSQESVTEQDSKDSTYSLSSTLTLSKADYEKHKVYACEVTHQGLSSPVTKSFNRGEC
notes: also called DVD1901H; DVD1901L
- Kd [2]: 0.16 nM
- koff [2]: 9.3e-05 s⁻¹
- kon [2]: 580000 M⁻¹ s⁻¹

B3: DVD1875 (bispecific antibody, human IgG1, kappa)
heavy: not shown
light: DIQMTQSPSSLSASVGDRVTITCQASQDISNYLNWYQQKPGKAPKLLIYDASNLETGVPSRFSGSGSGTDFTFTISSLQPEDIATYFCQHFDHLPLAFGGGTKVEIKRTVAAPQIVLIQSPAIMSASPGEKVTMTCSASSSVSYMYWYQQKPGSSPRLLIYDTSNLASGVPVRFSGSGSGTSYSLTISRMEAEDAATYYCQQWSGYPYTFGGGTKLEIKRTVAAPSVFIFPPSDEQLKSGTASVVCLLNNFYPREAKVQWKVDNALQSGNSQESVTEQDSKDSTYSLSSTLTLSKADYEKHKVYACEVTHQGLSSPVTKSFNRGEC
notes: also called DVD1875H; DVD1875L
- N-Terminal VD GEO MEAN (FACS geometric mean) (EGFR on the cell surface): 717

B4: DVD1867 (bispecific antibody, human IgG1, kappa)
heavy: not shown
light: DIQMTQSPSSLSASVGDRVTITCRASQDVSTAVAWYQQKPGKAPKLLIYSASFLYSGVPSRFSGSGSGTDFTLTISSLQPEDFATTYYCQQSYTGTVTFGQGTKVEIKRTVAAPQIVLIQSPAIMSASPGEKVTMTCSASSSVSYMYWYQQKPGSSPRLLIYDTSNLASGVPVRFSGSGSGTSYSLTISRMEAEDAATYYCQQWSGYPYTFGGGTKLEIKRTVAAPSVFIFPPSDEQLKSGTASVVCLLNNFYPREAKVQWKVDNALQSGNSQESVTEQDSKDSTYSLSSTLTLSKADYEKHKVYACEVTHQGLSSPVTKSFNRGEC
notes: Outer domain anti-DLL4 (AB015), inner domain anti-IL-6 (AB040); also called DVD1867H; DVD1867L
- Kd (Recombinant Human DLL4): 0.49 nM
- koff (Recombinant Human DLL4): 0.00022 s⁻¹
- kon (Recombinant Human DLL4): 460000 M⁻¹ s⁻¹

B5: DVD1857 (bispecific antibody, human IgG1, kappa)
heavy: not shown
light: DIQMTQSPSSLSASVGDRVTITCQASQDITNYLNWYQQKPGKAPKLLIYDASNLETGVPSRFSGSGSGTDFTFTISSLQPEDIATYNCQQCENFPITFGQGTRLEIKRTVAAPQIVLIQSPAIMSASPGEKVTMTCSASSSVSYMYWYQQKPGSSPRLLIYDTSNLASGVPVRFSGSGSGTSYSLTISRMEAEDAATYYCQQWSGYPYTFGGGTKLEIKRTVAAPSVFIFPPSDEQLKSGTASVVCLLNNFYPREAKVQWKVDNALQSGNSQESVTEQDSKDSTYSLSSTLTLSKADYEKHKVYACEVTHQGLSSPVTKSFNRGEC
notes: also called DVD1857H; DVD1857L
- Kd (ErbB3): 0.12 nM
- koff (ErbB3): 0.00015 s⁻¹
- kon (ErbB3): 1.2e+06 M⁻¹ s⁻¹

B6: DVD1865 (bispecific antibody, human IgG1, kappa)
heavy: not shown
light: DIQMTQSPSSLSASVGDRVTITCSASQDISNYLNWYQQKPGKAPKVLIYFTSSLHSGVPSRFSGSGSGTDFTLTISSLQPEDFATYYCQQYSTVPWTFGQGTKVEIKRTVAAPQIVLIQSPAIMSASPGEKVTMTCSASSSVSYMYWYQQKPGSSPRLLIYDTSNLASGVPVRFSGSGSGTSYSLTISRMEAEDAATYYCQQWSGYPYTFGGGTKLEIKRTVAAPSVFIFPPSDEQLKSGTASVVCLLNNFYPREAKVQWKVDNALQSGNSQESVTEQDSKDSTYSLSSTLTLSKADYEKHKVYACEVTHQGLSSPVTKSFNRGEC
notes: also called DVD1865H; DVD1865L
- Kd [2]: < 0.002 nM
- koff [2]: < 1e-06 s⁻¹
- kon [2]: 640000 M⁻¹ s⁻¹

B7: DVD1899 (bispecific antibody, human IgG1, kappa)
heavy: not shown
light: QSALTQPASVSGSPGQSITISCTGTSSDVGSYNVVSWYQQHPGKAPKLIIYEVSQRPSGVSNRFSGSKSGNTASLTISGLQTEDEADYYCCSYAGSSIFVIFGGGTKVTVLGQPKAAPQIVLIQSPAIMSASPGEKVTMTCSASSSVSYMYWYQQKPGSSPRLLIYDTSNLASGVPVRFSGSGSGTSYSLTISRMEAEDAATYYCQQWSGYPYTFGGGTKLEIKRTVAAPSVFIFPPSDEQLKSGTASVVCLLNNFYPREAKVQWKVDNALQSGNSQESVTEQDSKDSTYSLSSTLTLSKADYEKHKVYACEVTHQGLSSPVTKSFNRGEC
notes: also called DVD1899H; DVD1899L
- Kd (ErbB3): 6.7 nM
- koff (ErbB3): 0.00026 s⁻¹
- kon (ErbB3): 38000 M⁻¹ s⁻¹

B8: DVD1869 (bispecific antibody, human IgG1, kappa)
heavy: not shown
light: DIVLTQSPDSLAVSLGERVTMNCKSSQSLLNSGMRKSFLAWYQQKPGQSPKLLIYWASTRESGVPDRFTGSGSGTDFTLTISSVQAEDVAVYYCKQSYHLFTFGSGTKLEIKRTVAAPQIVLIQSPAIMSASPGEKVTMTCSASSSVSYMYWYQQKPGSSPRLLIYDTSNLASGVPVRFSGSGSGTSYSLTISRMEAEDAATYYCQQWSGYPYTFGGGTKLEIKRTVAAPSVFIFPPSDEQLKSGTASVVCLLNNFYPREAKVQWKVDNALQSGNSQESVTEQDSKDSTYSLSSTLTLSKADYEKHKVYACEVTHQGLSSPVTKSFNRGEC
notes: Outer domain anti-PlGF (AB047), inner domain anti-IL-6 (AB040); also called DVD1869H; DVD1869L
- Kd (Recombinant Human PIGF): 0.02 nM
- koff (Recombinant Human PIGF): 0.00011 s⁻¹
- kon (Recombinant Human PIGF): 5.6e+06 M⁻¹ s⁻¹

B9: AB016 (antibody, V domains shown)
VH: EVQLVESGGGLVQPGGSLRLSCAASGFSFSSEPISWVRQAPGKGLEWVSSITGKNGYTYYADSVKGRFTISADTSKNTAYLQMNSLRAEDTAVYYCARWGKKVYGMDVWGQGTLVTVSS
VL: DIQMTQSPSSLSASVGDRVTITCRASQSISSYLAWYQQKPGKAPKLLIYGASSRASGVPSRFSGSGSGTDFTLTISSLQPEDFATYYCQQYMSVPITFGQGTKVEIKR
notes: Parent antibody; also called AB016VH; AB016VL
- N-Terminal VD GEO MEAN (FACS geometric mean) (NRP1 on the cell surface): 15.4

B10: DVD1855 (bispecific antibody, human IgG1, kappa)
heavy: not shown
light: DIEMTQSPDSLAVSLGERATINCRSSQSVLYSSSNRNYLAWYQQNPGQPPKLLIYWASTRESGVPDRFSGSGSGTDFTLTISSLQAEDVAVYYCQQYYSTPRTFGQGTKVEIKRTVAAPQIVLIQSPAIMSASPGEKVTMTCSASSSVSYMYWYQQKPGSSPRLLIYDTSNLASGVPVRFSGSGSGTSYSLTISRMEAEDAATYYCQQWSGYPYTFGGGTKLEIKRTVAAPSVFIFPPSDEQLKSGTASVVCLLNNFYPREAKVQWKVDNALQSGNSQESVTEQDSKDSTYSLSSTLTLSKADYEKHKVYACEVTHQGLSSPVTKSFNRGEC
notes: also called DVD1855H; DVD1855L
- Kd (ErbB3): 3.7 nM
- koff (ErbB3): 0.00038 s⁻¹
- kon (ErbB3): 100000 M⁻¹ s⁻¹

B11: DVD1853 (bispecific antibody, human IgG1, kappa)
heavy: not shown
light: DVVMTQSPLSLPVTPGEPASISCRSSQSLLHSNGFNYVDWYLQKPGQSPHLLIYFGSYRASGVPDRFSGSGSGTDFTLKISRVEAEDVGVYYCMQALQTPPWTFGQGTKVEIRRTVAAPQIVLIQSPAIMSASPGEKVTMTCSASSSVSYMYWYQQKPGSSPRLLIYDTSNLASGVPVRFSGSGSGTSYSLTISRMEAEDAATYYCQQWSGYPYTFGGGTKLEIKRTVAAPSVFIFPPSDEQLKSGTASVVCLLNNFYPREAKVQWKVDNALQSGNSQESVTEQDSKDSTYSLSSTLTLSKADYEKHKVYACEVTHQGLSSPVTKSFNRGEC
notes: also called DVD1853H; DVD1853L
- Kd [3]: 15 nM
- koff [3]: 0.00085 s⁻¹
- kon [3]: 58000 M⁻¹ s⁻¹

B12: DVD1871 (bispecific antibody, human IgG1, kappa)
heavy: not shown
light: QAVLTQPSSLSAPPGASASLTCTLRSGFNVDSYRISWYQQKPGSPPQYLLRYKSDSDKQQGSGVPSRFSGSKDASANAGILLISGLQSEDEADYYCMIWHSSAWVFGGGTKLTVLRTVAAPQIVLIQSPAIMSASPGEKVTMTCSASSSVSYMYWYQQKPGSSPRLLIYDTSNLASGVPVRFSGSGSGTSYSLTISRMEAEDAATYYCQQWSGYPYTFGGGTKLEIKRTVAAPSVFIFPPSDEQLKSGTASVVCLLNNFYPREAKVQWKVDNALQSGNSQESVTEQDSKDSTYSLSSTLTLSKADYEKHKVYACEVTHQGLSSPVTKSFNRGEC
notes: also called DVD1871H; DVD1871L
- Kd [3]: > 1 nM
- koff [3]: > 0.01 s⁻¹
- kon [3]: > 1e+07 M⁻¹ s⁻¹

B13: DVD1907 (bispecific antibody, human IgG1, kappa)
heavy: not shown
light: DIQMTQSPSSMSVSVGDRVTITCHSSQDINSNIGWLQQKPGKSFKGLIYHGTNLDDGVPSRFSGSGSGTDYTLTISSLQPEDFATYYCVQYAQFPWTFGGGTKLEIKRTVAAPQIVLIQSPAIMSASPGEKVTMTCSASSSVSYMYWYQQKPGSSPRLLIYDTSNLASGVPVRFSGSGSGTSYSLTISRMEAEDAATYYCQQWSGYPYTFGGGTKLEIKRTVAAPSVFIFPPSDEQLKSGTASVVCLLNNFYPREAKVQWKVDNALQSGNSQESVTEQDSKDSTYSLSSTLTLSKADYEKHKVYACEVTHQGLSSPVTKSFNRGEC
notes: also called DVD1907H; DVD1907L
- N-Terminal VD GEO MEAN (FACS geometric mean) (EGFR on the cell surface): 23.5
